Data as given in US20220251562, “Anti-CD3 Aptamers for Use in Cell Targeting and Labeling” (Ixaka France, published 2022).

Tests used:
[1] = biological target: T1, CD3 epsilon/delta heterodimer (Homo sapiens, UniProt P07766;P04234 P07766:23-126,P04234:22-105); assay: SPR; steady state; kinetic fit suboptimal; conditions: tags: C-terminal human IgG1 Fc fusion, AcroBiosystems; chain copies: heterodimer 1:1 (inferred); label: 5'-biotin-TEG
Protocol: (§1) Binding affinity measurements were performed using a BIAcore T200 instrument (GE Healthcare). To analyze interactions between aptamers and CD3 proteins, 1000 Resonance Units of biotinylated aptamers were immobilized on Series S Sensor chips SA (GE Healthcare) according to manufacturer's instructions (GE Healthcare). SELEX buffer was used as the running buffer. The interactions were measured in the “Single Kinetics Cycle” mode at a flow rate of 30 μl/min and by injecting different concentrations of human CD3 ε/γ, CD3 ε/δ, IgG1 Fc and mouse CD3 ε/δ (Sino Biological). The highest protein concentration used was 100 nM. Other concentrations were obtained by 3-fold dilution. All kinetic data of the interaction were evaluated using the BIAcore T200 evaluation software. Table 3 below provides a summary of KD values obtained from surface plasmon resonance measurements.

[2] = biological target: T2, CD3 epsilon/gamma heterodimer (Homo sapiens, UniProt P07766;P09693 P07766:23-126,P09693:23-116); assay: SPR; steady state; kinetic fit suboptimal; conditions: tags: C-terminal human IgG1 Fc fusion, AcroBiosystems; chain copies: heterodimer 1:1 (inferred); label: 5'-biotin-TEG
Protocol: as §1

IgG1 Fc (counter target) [3] = biological target: T3, IgG1 Fc (counter target) (Homo sapiens, UniProt P01857-1 P01857-1:100-330); assay: SPR; no interaction observed; conditions: tags: AcroBiosystems; chain copies: 2; label: 5'-biotin-TEG
Protocol: as §1

[4] = biological target: T1, CD3 epsilon/delta heterodimer; assay: SPR; steady state; kinetic 23.3 nM (Table 6); conditions: tags: C-terminal human IgG1 Fc fusion, AcroBiosystems; chain copies: heterodimer 1:1 (inferred); label: 5'-biotin-TEG
Protocol: as §1

[5] = biological target: T1, CD3 epsilon/delta heterodimer; assay: SPR; NA; conditions: tags: C-terminal human IgG1 Fc fusion, AcroBiosystems; chain copies: heterodimer 1:1 (inferred); label: 5'-biotin-TEG
Protocol: as §1
(§2) Further, it was observed that compared to the aptamer CELTIC_1 (CD3-1 in Table 1), CELTIC_1s (CD3-1s) bound to the CD3 proteins more strongly. Table 4 below provides a summary of KD values obtained from another set of surface plasmon resonance measurements. It includes KD values of the first five aptamers with and without flanking regions.

[6] = biological target: T2, CD3 epsilon/gamma heterodimer; assay: SPR; NA; conditions: tags: C-terminal human IgG1 Fc fusion, AcroBiosystems; chain copies: heterodimer 1:1 (inferred); label: 5'-biotin-TEG
Protocol: as §1, §2

IgG1 Fc (counter target) [7] = biological target: T3, IgG1 Fc (counter target); assay: SPR; no interaction observed; aptamer also NA for CD3; conditions: tags: AcroBiosystems; chain copies: 2; label: 5'-biotin-TEG
Protocol: as §1, §2

[8] = biological target: T1, CD3 epsilon/delta heterodimer; assay: SPR; steady state; kinetic 8.2 nM (Table 6), 900 pM (Table 8); conditions: tags: C-terminal human IgG1 Fc fusion, AcroBiosystems; chain copies: heterodimer 1:1 (inferred); label: 5'-biotin-TEG
Protocol: as §1

[9] = biological target: T2, CD3 epsilon/gamma heterodimer; assay: SPR; steady state; kinetic 9.5 pM (Table 6), 304 pM (Table 8); 99 nM steady state (Table 9); conditions: tags: C-terminal human IgG1 Fc fusion, AcroBiosystems; chain copies: heterodimer 1:1 (inferred); label: 5'-biotin-TEG
[10] = biological target: T1, CD3 epsilon/delta heterodimer; assay: SPR; steady state; kinetic 3.7 nM (Table 6); conditions: tags: C-terminal human IgG1 Fc fusion, AcroBiosystems; chain copies: heterodimer 1:1 (inferred); label: 5'-biotin-TEG
Protocol: as §1

[11] = biological target: T2, CD3 epsilon/gamma heterodimer; assay: SPR; steady state; kinetic 3.8 nM (Table 6); conditions: tags: C-terminal human IgG1 Fc fusion, AcroBiosystems; chain copies: heterodimer 1:1 (inferred); label: 5'-biotin-TEG
Protocol: as §1

[12] = biological target: T1, CD3 epsilon/delta heterodimer; assay: SPR; steady state; kinetic 41.1 nM (Table 6); conditions: tags: C-terminal human IgG1 Fc fusion, AcroBiosystems; chain copies: heterodimer 1:1 (inferred); label: 5'-biotin-TEG
Protocol: as §1

[13] = biological target: T1, CD3 epsilon/delta heterodimer; assay: SPR; steady state; kinetic 3.2 nM (Table 6); conditions: tags: C-terminal human IgG1 Fc fusion, AcroBiosystems; chain copies: heterodimer 1:1 (inferred); label: 5'-biotin-TEG
Protocol: as §1

[14] = biological target: T2, CD3 epsilon/gamma heterodimer; assay: SPR; steady state; kinetic 3.9 nM (Table 6); conditions: tags: C-terminal human IgG1 Fc fusion, AcroBiosystems; chain copies: heterodimer 1:1 (inferred); label: 5'-biotin-TEG
Protocol: as §1

[15] = biological target: T2, CD3 epsilon/gamma heterodimer; assay: SPR; steady state; 43.6 nM (Table 3); kinetic 2.8 nM (Table 6); conditions: tags: C-terminal human IgG1 Fc fusion, AcroBiosystems; chain copies: heterodimer 1:1 (inferred); label: 5'-biotin-TEG
Protocol: as §1

[16] = biological target: T1, CD3 epsilon/delta heterodimer; assay: SPR; steady state; 62.2 nM (Table 3); kinetic 3.4 nM (Table 6); conditions: tags: C-terminal human IgG1 Fc fusion, AcroBiosystems; chain copies: heterodimer 1:1 (inferred); label: 5'-biotin-TEG
Protocol: as §1

[17] = biological target: T1, CD3 epsilon/delta heterodimer; assay: SPR; steady state; kinetic 2.7 nM (Table 6); conditions: tags: C-terminal human IgG1 Fc fusion, AcroBiosystems; chain copies: heterodimer 1:1 (inferred); label: 5'-biotin-TEG
Protocol: as §1

[18] = biological target: T2, CD3 epsilon/gamma heterodimer; assay: SPR; steady state; kinetic 2.3 nM (Table 6); conditions: tags: C-terminal human IgG1 Fc fusion, AcroBiosystems; chain copies: heterodimer 1:1 (inferred); label: 5'-biotin-TEG
Protocol: as §1

[19] = biological target: T1, CD3 epsilon/delta heterodimer; assay: SPR; same value in Table 3; conditions: tags: C-terminal human IgG1 Fc fusion, AcroBiosystems; chain copies: heterodimer 1:1 (inferred); label: 5'-biotin-TEG
Protocol: as §1, §2

[20] = biological target: T2, CD3 epsilon/gamma heterodimer; assay: SPR; same value in Table 3; conditions: tags: C-terminal human IgG1 Fc fusion, AcroBiosystems; chain copies: heterodimer 1:1 (inferred); label: 5'-biotin-TEG
Protocol: as §1, §2

[21] = biological target: T2, CD3 epsilon/gamma heterodimer; assay: SPR; steady state; kinetic 104 pM (Table 8); conditions: tags: C-terminal human IgG1 Fc fusion, AcroBiosystems; chain copies: heterodimer 1:1 (inferred); label: biotin; G4 predicted
Protocol: (§3) Binding affinity measurements with the most interesting anti-CD3 aptamers derived from the core sequence were performed using a BIAcore T200 instrument (GE Healthcare) as already described in Example 4. To analyze interactions between aptamers and CD3 proteins, biotinylated aptamers were immobilized at a lower density than in Example 4 (100-500 RU) on Series S Sensor chips SA (GE Healthcare) according to manufacturer's instructions (GE Healthcare). Mouse and Cynomolgus CD3 ε/δ were purchased from AcroBiosystems. For human proteins, the highest concentration used was 100 nM and 1 μM for mouse and cynomolgus antigens. Other concentrations were obtained by 3-fold dilutions.
(§4) Table 9 below provides a summary of KD values obtained from surface plasmon resonance measurements performed with human CD3 ε/γ and mouse and cynomolgus CD3 ε/δ. […] In these conditions, 3′-3′ deoxy-thymidine-modified versions of the latest four aptamers performed equally well. All these sequenced-optimized aptamers were able to bind the murine and cynomolgus CD3 ε/δ isoforms confirming the cross-specificity of the CD3 aptamers already observed in Examples 3 and 5.

[22] = biological target: T1, CD3 epsilon/delta heterodimer; assay: SPR; kinetic; conditions: tags: C-terminal human IgG1 Fc fusion, AcroBiosystems; chain copies: heterodimer 1:1 (inferred); label: biotin; G4 predicted
Protocol: as §3
(§5) Table 8 below provides a summary of KD values obtained from surface plasmon resonance measurements. […] Variants of the core sequence identified in cell binding assays (CELTIC_core_12, CELTIC_core_24, CELTIC_core_29, CELTIC_core_40 and CELTIC_core_42) were all confirmed to have better affinities than the unmodified aptamer with human CD3 ε/γ. As already observed in Example 4, the affinities were in general slightly lower with CD3 ε/δ which is a consequence of the SELEX strategy that included more rounds on the CD3 ε/γ isoform. None of these sequences did bind to the Fc region of human IgG1.

[23] = biological target: T2, CD3 epsilon/gamma heterodimer; assay: SPR; steady state; kinetic 0.2 pM (Table 8); conditions: tags: C-terminal human IgG1 Fc fusion, AcroBiosystems; chain copies: heterodimer 1:1 (inferred); label: biotin; G4 predicted
Protocol: as §3, §4

IgG1 Fc (counter target) [24] = biological target: T3, IgG1 Fc (counter target); assay: SPR; NA; conditions: tags: AcroBiosystems; chain copies: 2; label: biotin; G4 predicted
Protocol: as §3, §5

[25] = biological target: T2, CD3 epsilon/gamma heterodimer; assay: SPR; steady state; kinetic 4.1 nM (Table 6); conditions: tags: C-terminal human IgG1 Fc fusion, AcroBiosystems; chain copies: heterodimer 1:1 (inferred); label: 5'-biotin-TEG
Protocol: as §1

[26] = biological target: T1, CD3 epsilon/delta heterodimer; assay: SPR; steady state; kinetic 3.4 nM (Table 6); conditions: tags: C-terminal human IgG1 Fc fusion, AcroBiosystems; chain copies: heterodimer 1:1 (inferred); label: 5'-biotin-TEG
Protocol: as §1

T1 sequence (P07766 23-126, stated change not applied, chain 1 of 2): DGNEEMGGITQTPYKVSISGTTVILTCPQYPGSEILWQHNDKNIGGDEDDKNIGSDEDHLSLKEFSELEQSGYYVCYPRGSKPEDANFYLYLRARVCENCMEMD
T1 sequence (P04234 22-105, stated change not applied, chain 2 of 2): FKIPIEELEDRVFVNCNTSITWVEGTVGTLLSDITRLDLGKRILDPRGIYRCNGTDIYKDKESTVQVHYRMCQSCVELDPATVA
T2 sequence (P07766 23-126, chain 1 of 2): as the sequence (P07766 23-126, stated change not applied, chain 1 of 2) above
T2 sequence (P09693 23-116, chain 2 of 2): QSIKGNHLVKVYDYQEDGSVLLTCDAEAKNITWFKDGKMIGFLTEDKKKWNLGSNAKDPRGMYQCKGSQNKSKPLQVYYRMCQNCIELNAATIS

B1: CELTIC_6s (ssDNA)
DNA: AAGGGATTGGCGTCGGGCCTGGCGTAAGGAGGCTATGCTC
What does the source list for B1?
Kd [1]: 168 nM; Kd [2]: 287 nM; binding result (IgG1 Fc (counter target) [3]): no binding

B2: CELTIC_21s (ssDNA)
DNA: GGTCGGGTGCTACTGAGCGATTGGCTTTCCGGACTGGGGA
Which results are given for B2?
Kd [4]: 405 nM; Kd [2]: 155 nM; binding result (IgG1 Fc (counter target) [3]): no binding

B3: CELTIC_5s (ssDNA)
DNA: CGGCAGGGGTTTGGCTCCGGGTCTGGCGAACTGGCTGAGA
For B3, which Kd [1] is on record?
The Kd was 120 nM.

And the Kd [2]?
Its Kd is 182 nM.

Does B3 bind (IgG1 Fc (counter target) [3])?
Result: no binding

B4: CELTIC_2 (ssDNA)
DNA: TAGGGAAGAGAAGGACATATGATGAGGGGTTTGGCATCGGGCCTGGCGCCATTCAAGCTATGCTTGACTAGTACATGACCACTTGA
What does the source list for B4?
binding result [5]: no binding; binding result [6]: no binding; binding result (IgG1 Fc (counter target) [7]): no binding

B5: CELTIC_19s (ssDNA)
DNA: TACCGCGGGGATTGGCTCCGGGCCTGGCGTCGTAATCTGA
Does B5 bind (IgG1 Fc (counter target) [3])?
Result: no binding

What about the Kd [8] of the same binder?
Its Kd is 150 nM.

What about the Kd [9] of the same binder?
Its Kd is 104 nM.

B6: CELTIC_9s (ssDNA)
DNA: GCATCGAAATGGGGTTGGCACCGGGCCTGGCGAATTGGAT
Which Kd [10] does the source give for B6 here?
The Kd was 60.5 nM.

What about the Kd [11] of the same binder?
Its Kd is 47.3 nM.

Does B6 bind (IgG1 Fc (counter target) [3])?
Result: no binding

B7: CELTIC_1 (ssDNA)
DNA: TAGGGAAGAGAAGGACATATGATCCGGGTGGGGGTTTGGCACCGGGCCTGGCGCAGGGATTCGTTGACTAGTACATGACCACTTGA
Does B7 bind [5]?
Result: no binding

Does B7 bind [6]?
Result: no binding

Does B7 bind (IgG1 Fc (counter target) [7])?
Result: no binding

B8: CELTIC_3s (ssDNA)
DNA: GCGTAAGGGTTTGGCAGCGGGCCTGGCGGAACGCGTGTAT
With B8 as the binder, how does the Kd [2] read?
Its Kd is 156 nM.

Does B8 bind (IgG1 Fc (counter target) [3])?
Result: no binding

And the Kd [12]?
The Kd was 409 nM.

B9: CELTIC_11s (ssDNA)
DNA: GATGGAGGGTTTGGCGGTGGGCCTGGCAAGTTATCTCATA
Does B9 bind (IgG1 Fc (counter target) [3])?
Result: no binding

What about the Kd [13] of the same binder?
The Kd was 138 nM.

What about the Kd [14] of the same binder?
The Kd was 94 nM.

B10: CELTIC_21 (ssDNA)
DNA: TAGGGAAGAGAAGGACATATGATGGTCGGGTGCTACTGAGCGATTGGCTTTCCGGACTGGGGATTGACTAGTACATGACCACTTGA
Which results are given for B10?
Kd [15]: 56.4 nM; Kd [16]: 49.8 nM

B11: CELTIC_22s (printed CELTIC_CD3_22) (ssDNA)
DNA: CGACCACAGGGGTTTGGCTTCGGGACTGGCGGTGGGCACT
How did the Kd [17] turn out when B11 was run?
Its Kd is 164 nM.

What about the Kd [18] of the same binder?
Its Kd is 162 nM.

B12: CELTIC_3 (ssDNA)
DNA: TAGGGAAGAGAAGGACATATGATGCGTAAGGGTTTGGCAGCGGGCCTGGCGGAACGCGTGTATTTGACTAGTACATGACCACTTGA
B12 was tested. Which Kd [19] did it give?
The Kd was 86.5 nM.

What about the Kd [20] of the same binder?
Its Kd is 65.4 nM.

B13: CELTIC_core_40t (ssDNA)
DNA: GGGTTTGGCATCGGGTCTGGC
modifications: 5'-HEG; 3'-3' dT
B13 was tested. Which Kd [21] did it give?
The Kd was 156 nM.

What about the Kd [22] of the same binder?
The Kd was 0.01 nM.

B14: CELTIC_core_40 (ssDNA)
DNA: GGGTTTGGCATCGGGTCTGGC
modifications: 5'-HEG
B14 was tested. Which Kd [23] did it give?
The Kd was 129 nM.

What about the Kd [22] of the same binder?
The Kd was 0.0052 nM.

Does B14 bind (IgG1 Fc (counter target) [24])?
Result: no binding

B15: CELTIC_4s (ssDNA)
DNA: GGAGTGGAGTATTCCGGGTTTGGCATCGGGCCTGGCGAAG
For B15, which Kd [25] is on record?
The Kd was 117 nM.

Does B15 bind (IgG1 Fc (counter target) [3])?
Result: no binding

What about the Kd [26] of the same binder?
Its Kd is 144 nM.
